Reference: patent US9605064B2, “Methods and compositions for treatment of skin disorders” (AbbVie Biotechnology Ltd, priority 2006, dated 2017)
Several values for one entry are separate records, joined by “and”; a condition that tells them apart may be missing. Equal entries are not always repeated. Marks after values point to notes of the source that are not given here.

Tests used:
[1] = system: patients with moderate to severe psoriasis; experiment: PASI response, open-label extension (OLE) of REVEAL; format: in vivo, human
Experimental: Laboratory parameters and adverse events were also recorded.
The REVEAL study had two independent primary endpoints. The first endpoint was the proportion of patients achieving 75 percent improvement in skin clearance after 16 weeks. The second endpoint was the proportion of patients who lost adequate response through week 52 after stopping treatment with HUMIRA at week 33. Signs of psoriasis were evaluated using the Psoriasis Area and Severity Index (PASI), among other measures. […] At week 52, the start of the OLE period, patients randomized at week 33, as well as patients originally in the placebo group at week 0, were able to enter the OLE period.

[2] = system: patients with severe psoriasis who were non-responders to high-dosage etanercept; experiment: DLQI, open-label adalimumab in non-responders to high-dosage etanercept; format: in vivo, human
Experimental: Details on clinical course and adverse events were recorded, along with measurements of PASI and Dermatology Life Quality Index (DLQI) at baseline and Weeks 2, 4, 8, and 12.
At each clinical visit PASI, DLQI, and percentage body surface area (% BSA) affected were assessed and recorded. In addition, patients received medical assessments together with monitoring laboratory investigations (FIG. 11).

[3] = system: adult patients with moderate to severe chronic plaque psoriasis; experiment: Adverse events, REVEAL 52-week Phase III trial
[4] = system: patients with moderate to severe chronic plaque psoriasis; experiment: Adverse events, CHAMPION 16-week Phase III trial; conditions: 16-week study
Text: The study was a multi-center, 16-week, randomized controlled Phase III trial. The main inclusion criteria included: • Clinical diagnosis of psoriasis for ≧1 year • Affected body surface area (BSA)≧10% • Psoriasis Area and Severity Index (PASI)≧10 The main exclusion criteria was previous use of MTX or systemic anti-TNF therapy.

[5] = system: patients with moderate to severe chronic plaque psoriasis; experiment: Adverse events, 120-week open-label extension study; conditions: 40 mg eow; for Hypercholesterolemia / Increased triglycerides: non-fasting
Experimental: Inclusion criteria included: moderate to severe chronic plaque psoriasis: ≧1 year and affected BSA: ≧5%. Exclusion criteria included prior TNF-antagonist therapy.
PASI responses and PGA scores were analyzed as observed. […] Thus, patients whose dosages increased were counted as non-responders from the time of dosage escalation. Adverse events were collected throughout the 120-week period.

[6] = system: patients with chronic plaque psoriasis; experiment: Safety, 16-week open-label Phase IIIb trial after suboptimal response to ETN, MTX or NB-UVB
Text: This 16-week, multicenter, open-label, Phase IIIb trial enrolled patients with chronic plaque psoriasis who were having a suboptimal response to ETN (Physician's Global Assessment [PGA]≧mild with months of therapy, or ≧3 months of therapy and deterioration of efficacy), MTX (PGA≧mild with ≧4 months of therapy), or narrow-band ultraviolet B (NB-UVB) phototherapy (PGA moderate with months of therapy). […] The primary endpoint was the proportion of patients who achieved PGA of clear or minimal at week 16. A secondary endpoint was the proportion achieving ≧1 grade of PGA improvement. Safety was assessed throughout the study. Efficacy analyses were intention to treat, with nonresponder imputation used for missing data. Efficacy and safety results were analyzed overall and for each prior-treatment group.

[7] = Week 0 of OLE, n = 233, ITT, LOCF, 40 mg eow
[8] = Week 12 of OLE, n = 233, ITT, LOCF, 40 mg eow
[9] = Week 24 of OLE, n = 233, ITT, LOCF, 40 mg eow
[10] = after 12 months of continuous adalimumab dosing, ITT (233 patients)
[11] = after 18 months, ITT (233 patients)
[12] = Adalimumab Treatment Group (540.5 PY)
[13] = Adalimumab Treatment Group, 52 weeks (540.5 PYs)
[14] = Period A, adalimumab-treated patients
[15] = MTX N = 110, Adalimumab N = 107

## Adalimumab: a human anti-TNF mAb, described in U.S. Pat. No. 6,090,382 as D2E7 (HUMIRA, Abbott Laboratories)
[1]; [7]
  PASI 75 response rate: 85%
  PASI 90 response rate: 84%
  PASI 100 response rate: 87%
[1]; [8]
  PASI 75 response rate: 59%
  PASI 90 response rate: 60%
  PASI 100 response rate: 63%
[1]; [9]
  PASI 75 response rate: 35%
  PASI 90 response rate: 33%
  PASI 100 response rate: 34%
[1]; [10]
  PASI 75 response rate: 85%
  PASI 90 response rate: 59%
  PASI 100 response rate: 35%
[1]; [11]
  PASI 75 response rate: 87%
  PASI 90 response rate: 63%
  PASI 100 response rate: 34%
[1]; re-randomized to adalimumab at Wk 33, did not lose adequate response, after 24 weeks in OLE
  PASI 75 response rate: 83%
[1]; re-randomized to adalimumab at Wk 33, lost adequate response, after 24 weeks in OLE
  PASI 75 response rate: 55%
[1]; re-randomized to placebo at Wk 33, did not lose adequate response, Wk 24 of OLE adalimumab
  PASI 75 response rate: 84%
[1]; re-randomized to placebo at Wk 33, lost adequate response, Wk 24 of OLE adalimumab
  PASI 75 response rate: 55%
[2]; Week 2, individual patients 1-5 (c1-c5), weekly adalimumab
  DLQI: 17 and 10 and 30 and 9 and 5
[2]; Week 4, individual patients 1-5 (c1-c5), weekly adalimumab
  DLQI: 16 and 5 and 28 and 4 and 7
[2]; Week 8, individual patients 1-5 (c1-c5), weekly adalimumab
  DLQI: 15 and 3 and 0 and 9
[2]; Week 12, individual patients 1-5 (c1-c5), weekly adalimumab
  DLQI: 6 (2×) and 1 and 26 and 2
[2]; five patients, Week 12
  mean decrease in DLQI score: 8.8
[2]; individual patients 1-5 (c1-c5), weekly adalimumab
  % Improvement in DLQI from baseline to Week 12: 68% and 91% and 13% and 82% and 57%
[3]; 52-week study
  lymphomas: no lymphomas were diagnosed
  opportunistic infection: One case of oral candidiasis
[3]; 52-week study, patient PPD+ve at baseline, non-compliant with INH prophylaxis
  tuberculosis: one case of presumptive tuberculosis
[3]; [12]
  Allergic Reaction, rate: 0.002 Event/PY
  Congestive Heart Failure, rate: 0.002 Event/PY
  Demyelinating Disorder, rate: 0 Event/PY
  Injection Site Reaction, rate: 0.017 Event/PY
  Lupus-like Syndrome, rate: 0 Event/PY
  Lymphoma, rate: 0 Event/PY
  Malignancies, excluding NMSC + lymphoma, rate: 0.004 Event/PY
  Non-melanoma skin cancers, rate: 0.013 Event/PY
  Tuberculosis (TB), rate: 0.002 Event/PY
[3]; [13]
  AEs leading to withdrawal, rate: 0.078 Event/PY
  Any AE, rate: 3.991 Event/PY
  Serious AEs, rate: 0.061 Event/PY
[3]; Period A (250.2 PY)
  Allergic Reaction, rate: 0.004 Event/PY
  Congestive Heart Failure, rate: 0.004 Event/PY
  Demyelinating Disorder, rate: 0 Event/PY
  Injection Site Reaction, rate: 0.276 Event/PY
  Lupus-like Syndrome, rate: 0 Event/PY
  Lymphoma, rate: 0 Event/PY
  Malignancies, excluding NMSC + lymphoma, rate: 0.008 Event/PY
  Non-melanoma skin cancers, rate: 0.016 Event/PY
  Tuberculosis (TB), rate: 0 Event/PY
[3]; Period A (250.2 PYs)
  AEs leading to withdrawal, rate: 0.072 Event/PY
  Any AE, rate: 4.616 Event/PY
  Serious AEs, rate: 0.068 Event/PY
[3]; Period A (N = 814)
  AEs leading to withdrawal, percentage: 1.7%
  Allergic Reaction, percentage: 1%
  Any AE, percentage: 62.2‡ %
  Congestive Heart Failure, percentage: 1%
  Demyelinating Disorder, percentage: 0%
  Injection Site Reaction, percentage: 6.9%
  Lupus-like Syndrome, percentage: 0%
  Lymphoma, percentage: 0%
  Malignancies, excluding NMSC + lymphoma, percentage: 0.2%
  Non-melanoma skin cancers, percentage: 0.5%
  Opportunistic Infections, excluding TB, percentage: 0%
  Serious AEs, percentage: 1.8%
  Serious Infectious AEs, percentage: 0.6%
  Severe Infectious AEs, percentage: 0.7%
  Tuberculosis (TB), percentage: 0%
[3]; Period A (N = 814), common AE ≧5%
  Nasopharyngitis: 45 (5.3) n (%)
[3]; Period A (weeks 0-16)
  patients with serious AEs: 1.8%
[3]; [14]
  Nasopharyngitis: 5.3%
  Sinusitis: 2.7%
  upper respiratory tract infections: 7.2%
[4]; [15]
  Any AE: 79 (74) n (%)
  Any AE leading to discontinuation: 1 (1) n (%)
  Any SAE: 2 (2) n (%)
[4]; common AE in ≧5% of patients
  Arthralgia: 6 (6) n (%)
  Gamma-Glutamyltransferase Increased: 2 (2) n (%)
  Headache: 14 (13) n (%)
  Nasopharyngitis: 30 (28) n (%)
  Nausea: 4 (4) n (%)
  Pruritus: 4 (4) n (%)
  Rhinitis: 3 (3) n (%)
  Rhinorrhea: 3 (3) n (%)
  Viral Infection: 0 (0) n (%)
[5]; 120-week period
  cases of tuberculosis, demyelinating disorder, lupus-like syndrome, lymphoma, or congestive heart failure: No cases
[5]; Week 0-24 (n = 92)
  AEs leading to withdrawal, patients: 4 (4.3) n (%)
  Any AE, patients: 69 (75.0) n (%)
  Diarrhea: 5 (5.4) n (%)
  Headache: 7 (7.6) n (%)
  Infectious AEs, patients: 28 (30.4) n (%)
  Malignant AEs, patients: 1 (1.1) n (%)
  Nasopharyngitis: 9 (9.8) n (%)
  Serious AEs, patients: 2 (2.2) n (%)
  Sinusitis: 1 (1.1) n (%)
  Hypercholesterolemia: 4 (4.3) n (%)
  Increased triglycerides: 7 (7.6) n (%)
[5]; Week 25-48 (n = 78)
  AEs leading to withdrawal, patients: 0 (0.0) n (%)
  Any AE, patients: 33 (42.3) n (%)
  Diarrhea: 1 (1.3) n (%)
  Headache: 0 (0.0) n (%)
  Malignant AEs, patients: 0 (0.0) n (%)
  Nasopharyngitis: 5 (6.4) n (%)
  Serious AEs, patients: 0 (0.0) n (%)
  Sinusitis: 1 (1.3) n (%)
  Hypercholesterolemia: 0 (0.0) n (%)
  Increased triglycerides: 1 (1.3) n (%)
[5]; Week 49-72 (n = 62)
  AEs leading to withdrawal, patients: 0 (0.0) n (%)
  Any AE, patients: 28 (45.2) n (%)
  Diarrhea: 1 (1.6) n (%)
  Headache: 0 (0.0) n (%)
  Malignant AEs, patients: 0 (0.0) n (%)
  Nasopharyngitis: 1 (1.6) n (%)
  Serious AEs, patients: 0 (0.0) n (%)
  Sinusitis: 1 (1.6) n (%)
  Hypercholesterolemia: 1 (1.6) n (%)
  Increased triglycerides: 1 (1.6) n (%)
[5]; Week 73-96 (n = 55)
  AEs leading to withdrawal, patients: 0 (0.0) n (%)
  Any AE, patients: 27 (49.1) n (%)
  Diarrhea: 0 (0.0) n (%)
  Headache: 0 (0.0) n (%)
  Malignant AEs, patients: 0 (0.0) n (%)
  Nasopharyngitis: 3 (5.5) n (%)
  Serious AEs, patients: 0 (0.0) n (%)
  Sinusitis: 3 (5.5) n (%)
  Hypercholesterolemia: 3 (5.5) n (%)
  Increased triglycerides: 1 (1.8) n (%)
[5]; Week 97-120 (n = 53)
  AEs leading to withdrawal, patients: 0 (0.0) n (%)
  Any AE, patients: 25 (47.2) n (%)
  Diarrhea: 3 (5.7) n (%)
  Headache: 0 (0.0) n (%)
  Malignant AEs, patients: 0 (0.0) n (%)
  Nasopharyngitis: 2 (3.8) n (%)
  Serious AEs, patients: 1 (1.9) n (%)
  Sinusitis: 1 (1-9) n (%)
  Hypercholesterolemia: 1 (1.9) n (%)
  Increased triglycerides: 0 (0.0) n (%)
[6]; 16-week trial
  malignancies: no malignancies were reported
[6]; all patients (2 MTX, 2 ETN)
  patients with >25% worsening in PASI scores: 2.6%
